The results in this text go back to doi:10.1101/2023.06.05.543781.

For experiment [1], the target named is Munc13-1 C1-C2B-MUN-C2C domain (rat) (UniProt Q62768).
In another experiment the target is Syntaxin1 (rat) (UniProt P32851).
The target in another experiment is VAMP2 (mouse) (UniProt P63044).
Chain of UniProt P63044 (P63044 whole entry): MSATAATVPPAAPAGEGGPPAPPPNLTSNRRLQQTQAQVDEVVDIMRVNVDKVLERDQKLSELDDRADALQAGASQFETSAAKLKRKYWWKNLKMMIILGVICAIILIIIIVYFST

Chain of UniProt P32851 (P32851 whole entry): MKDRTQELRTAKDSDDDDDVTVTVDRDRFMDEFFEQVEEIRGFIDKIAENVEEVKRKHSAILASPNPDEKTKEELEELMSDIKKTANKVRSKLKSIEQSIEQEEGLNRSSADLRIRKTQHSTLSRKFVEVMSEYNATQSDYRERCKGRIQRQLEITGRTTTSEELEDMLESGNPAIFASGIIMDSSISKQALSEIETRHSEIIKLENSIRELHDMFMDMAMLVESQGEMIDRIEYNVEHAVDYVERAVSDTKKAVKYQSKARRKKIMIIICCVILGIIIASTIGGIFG

Take “SNAP25 linker mutant with residues 113-138 replaced by a GGGGS repeat sequence (from UniProt P60879 1-112; P60879 139-206) (natural protein)”: the Ca^2+ (100 μM)-evoked fusion of the immobile, clamped vesicles, with 500 nM DHG in experiment [1] was found to be 20%.
In the experiment with Syntaxin1 (rat), “Munc13-1 C1-C2B-MUN-C2C domain N1128A/F1131A (from UniProt Q62768 529-1407; Q62768 1453-1735) (domain or fragment)” showed a Ca^2+ (100 μM)-evoked fusion of the immobile, clamped vesicles, with 500 nM DHG of 20%.
“Munc13-1 C1-C2B-MUN-C2C domain D1358K (from UniProt Q62768 529-1407; Q62768 1453-1735) (domain or fragment)”: in the experiment with VAMP2 (mouse), the Ca^2+ (100 μM)-evoked fusion of the immobile, clamped vesicles, with 500 nM DHG was found to be 20%.
